One data set deals with TRF1 deltaN-376 (Homo sapiens, UniProt P54274 SEQ:1-439, deletion of N-terminus to 376). Description: EMSA; Myb domain without dimerization domain. The settings on record: label: 32P. An excerpt:
(§1) Coupled in vitro transcription/translation: TRF1 deletion mutants used for the in vitro coupled transcription/translation experiments were cloned in the vector pET28(a) (Promega) in the NcoI and EcoRI sites using PCR-generated fragments. The GFP-TRF1 fusion product was cloned in pBluescriptKS+. PCR-directed mutagenesis was used to eliminate from this construct the start codon of the TRF1 gene by mutating it from ATG to ATT in order to suppress the occurrence of internal translation at this position. The GFP sequence was obtained from pS65T-C I (Clontech). Expression of TRF1 derivatives was achieved by using a rabbit reticulocyte lysate system (Promega) using reaction conditions essentially as described by the supplier. Briefly, between 0.2 to 1 µg of total plasmid DNA was used per 20 µl reaction containing T7 RNA polymerase in the presence of ^35S-methionine (to visualize products on SDS-PAGE) or without labeled amino acids (for gel-shift assays). After the transcription/translation reaction samples were diluted 1:5 with the addition of 80 µl of buffer D [Chong et al., 1995, supra]. Of this mixture, 0.5–5 µl was used in gel-shift reactions.
(§2) Gel-shift assays: Gel-shift assays were performed as described previously [Zhong et al., 1992, supra] using labeled restriction fragments as probes. […]

Data set [1] has as its target T1, TRF1 purified from HeLa (Homo sapiens, UniProt P54274 SEQ:1-439).
T1 chain: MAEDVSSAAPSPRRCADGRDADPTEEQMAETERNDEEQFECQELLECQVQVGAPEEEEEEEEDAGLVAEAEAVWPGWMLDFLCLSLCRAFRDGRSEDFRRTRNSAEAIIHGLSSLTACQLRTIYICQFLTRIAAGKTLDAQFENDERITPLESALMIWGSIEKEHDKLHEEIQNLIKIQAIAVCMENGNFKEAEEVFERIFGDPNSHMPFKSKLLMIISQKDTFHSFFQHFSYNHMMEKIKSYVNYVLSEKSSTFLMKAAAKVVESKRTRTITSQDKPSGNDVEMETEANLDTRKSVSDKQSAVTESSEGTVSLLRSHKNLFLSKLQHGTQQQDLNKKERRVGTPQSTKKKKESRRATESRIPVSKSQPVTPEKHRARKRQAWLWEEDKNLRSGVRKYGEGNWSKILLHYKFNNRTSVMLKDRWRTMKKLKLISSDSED
The experiment in a line: EMSA; bend 57 and 59 degrees; competed by TTAGGG plasmid. The settings on record: chain copies: 2 stated; label: 32P. As to the method: (§3) DNA bending assay: PCR primers were used to generate DNA fragments with the composition indicated in FIG. 9 using pTH3, pTH6, and pTH12 [Zhong et al., 1992, supra] as templates, which contain 3, 6, and 12 tandem TTAGGG repeats, respectively. The products were end-labelled with ^32P-γ-ATP and polynucleotide kinase and the labelled fragments were isolated by preparative acrylamide gel-electrophoresis. Gel-shift reactions with partially purified HeLa TRF1 were performed as described above and the migration of the complexes was analyzed as described by Ferrari et al. [Ferrari et al., 1992, supra], and Thompson and Landy [*Nucl. Acids Res.*, 16:9687–9705 (1988)].
(§4) Labeled DNA probes were incubated with purified HeLa TRF1 under conditions in which one TRF1 dimer binds per probe molecule [Zhong et al., 1992, supra] and the mobility of the resulting complexes was analyzed on native polyacrylamide gels. The permuted sets of fragments had the same electrophoretic mobility as expected from their equal lengths. […] As shown in FIG. 9B for the 6mer and 12mer probes, an effect of the position of the hTRF1 binding site within the probes was observed. Slower migrating complexes were obtained when the binding site for hTRF1 was located more centrally in the DNA molecule, consistent with the induction of DNA bending upon hTRF1 binding.

A further data set has as its target TRF1 deltaN-28 (Homo sapiens, UniProt P54274 SEQ:1-439, deletion of first 28 aa). Description: EMSA; activity unaffected. The settings on record: label: 32P.
Text: as §1, §2

Another data set concerns the target TRF1 deltaN-46 (Homo sapiens, UniProt P54274 SEQ:1-439, deletion of first 46 aa). Description: EMSA; activity unaffected. The settings on record: label: 32P.
Text: as §1, §2

In the next data set the target is T2, TRF1 delta263-376 (Homo sapiens, internal deletion 263-376).
T2 chain: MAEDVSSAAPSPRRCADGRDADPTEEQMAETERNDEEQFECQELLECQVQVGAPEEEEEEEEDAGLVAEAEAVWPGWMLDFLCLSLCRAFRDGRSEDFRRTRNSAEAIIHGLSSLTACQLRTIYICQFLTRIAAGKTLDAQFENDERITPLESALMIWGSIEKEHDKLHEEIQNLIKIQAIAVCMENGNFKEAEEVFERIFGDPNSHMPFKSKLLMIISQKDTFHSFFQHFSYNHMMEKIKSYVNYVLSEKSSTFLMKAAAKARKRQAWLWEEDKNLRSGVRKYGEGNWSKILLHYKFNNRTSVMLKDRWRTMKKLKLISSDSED
The experiment in a line: EMSA; dimerization domain fused to Myb. The settings on record: label: 32P.
Text: as §1, §2

The target in the next data set is T3, GFP-TRF1 (Homo sapiens, UniProt P54274 SEQ:1-439).
T3 chain: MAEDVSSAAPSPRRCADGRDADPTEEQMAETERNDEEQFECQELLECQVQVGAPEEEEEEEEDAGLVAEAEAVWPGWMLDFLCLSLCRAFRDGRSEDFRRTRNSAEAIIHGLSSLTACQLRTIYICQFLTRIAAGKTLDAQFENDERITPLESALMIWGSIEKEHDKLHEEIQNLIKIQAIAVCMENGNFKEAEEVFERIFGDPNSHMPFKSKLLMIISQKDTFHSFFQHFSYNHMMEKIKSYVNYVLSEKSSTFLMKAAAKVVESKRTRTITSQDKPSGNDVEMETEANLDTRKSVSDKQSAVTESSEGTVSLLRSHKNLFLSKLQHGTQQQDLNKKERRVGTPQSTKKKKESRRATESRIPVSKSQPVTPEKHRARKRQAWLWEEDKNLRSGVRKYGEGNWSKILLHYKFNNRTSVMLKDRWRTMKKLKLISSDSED
Description: EMSA; binds as homodimer. The settings on record: tags: N-terminal GFP; TRF1 start codon ATG to ATT; chain copies: 2 stated; label: 32P.
Text: as §1, §2

The next data set has as its target T4, TRF1 derivative II (Homo sapiens, UniProt P54274 SEQ:1-439).
T4 chain: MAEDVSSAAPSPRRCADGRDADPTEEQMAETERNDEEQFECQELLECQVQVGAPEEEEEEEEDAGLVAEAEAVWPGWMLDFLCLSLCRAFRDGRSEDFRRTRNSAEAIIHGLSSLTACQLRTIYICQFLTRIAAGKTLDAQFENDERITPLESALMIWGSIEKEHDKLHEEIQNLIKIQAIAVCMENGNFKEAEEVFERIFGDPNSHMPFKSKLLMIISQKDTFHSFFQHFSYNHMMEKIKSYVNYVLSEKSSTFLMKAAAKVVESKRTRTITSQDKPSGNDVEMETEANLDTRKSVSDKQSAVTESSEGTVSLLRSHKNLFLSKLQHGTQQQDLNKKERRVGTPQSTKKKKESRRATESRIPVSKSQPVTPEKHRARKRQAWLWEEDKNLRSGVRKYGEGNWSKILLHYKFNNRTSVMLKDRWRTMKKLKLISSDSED
The experiment in a line: EMSA; binds as homodimer. The settings on record: tags: N-terminal 43 aa polylinker-encoded addition; chain copies: 2 stated; label: 32P.
Text: as §1, §2

The target in a further data set is TRF1 deltaN-196 (Homo sapiens, UniProt P54274 SEQ:1-439, deletion of N-terminus to 196). The experiment in a line: EMSA; lacks dimerization domain. The settings on record: label: 32P.
Text: as §1, §2

The target of a further data set is T5, TRF1 full length (Homo sapiens, UniProt P54274 SEQ:1-439).
T5 chain: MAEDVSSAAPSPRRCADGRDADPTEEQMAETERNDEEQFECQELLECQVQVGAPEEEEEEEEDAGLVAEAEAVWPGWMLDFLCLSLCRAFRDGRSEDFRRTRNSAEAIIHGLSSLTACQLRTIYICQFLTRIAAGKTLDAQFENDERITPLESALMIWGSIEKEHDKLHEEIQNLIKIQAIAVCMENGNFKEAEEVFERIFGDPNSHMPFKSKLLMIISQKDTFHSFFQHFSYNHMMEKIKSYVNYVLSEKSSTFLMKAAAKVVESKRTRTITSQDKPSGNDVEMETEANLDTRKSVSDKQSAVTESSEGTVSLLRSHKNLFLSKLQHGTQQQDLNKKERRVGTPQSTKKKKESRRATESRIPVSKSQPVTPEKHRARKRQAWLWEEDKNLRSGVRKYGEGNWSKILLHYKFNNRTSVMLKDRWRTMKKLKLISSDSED
The experiment in a line: EMSA. The settings on record: label: 32P.
Text: as §1, §2

Data set [2] addresses T1, TRF1 purified from HeLa. Description: EMSA; bend 64-66 degrees; competed by TTAGGG plasmid. The settings on record: chain copies: 2 stated; label: 32P. Here is the method: as §3, §4

The values that follow come from patent US6020166, “Nucleic acid encoding an altered telomere repeat binding factor 2” (The Rockfeller University).

B1: [TTAGGG]12 probe (142 bp pTH12 fragment) (dsDNA)
DNA 1: TTAGGGTTAGGGTTAGGGTTAGGGTTAGGGTTAGGGTTAGGGTTAGGGTTAGGGTTAGGGTTAGGGTTAGGG
DNA 2: CCCTAACCCTAACCCTAACCCTAACCCTAACCCTAACCCTAACCCTAACCCTAACCCTAACCCTAACCCTAA
For B1, the binding result is “no binding” with TRF1 deltaN-376; “binds” in the data set with TRF1 purified from HeLa [1]; “binds” in the data set with TRF1 deltaN-28; “binds” with TRF1 deltaN-46; “no binding” with TRF1 delta263-376; “binds” with GFP-TRF1. Besides, the binding result is “binds” with TRF1 derivative II, “no binding” in the data set with TRF1 deltaN-196 and “binds” in the data set with TRF1 full length.

B2: [TTAGGG]6 permuted probes (dsDNA)
DNA 1: TTAGGGTTAGGGTTAGGGTTAGGGTTAGGGTTAGGG
DNA 2: CCCTAACCCTAACCCTAACCCTAACCCTAACCCTAA
Regarding B2, the binding result with TRF1 purified from HeLa [2] is given as “binds”.
